Measurements from patent publication US20200317768A1 (published 2020).

Key:
Test in all cases: SPR (Biacore), KD of SG1 / KD of variant;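 also: relative to parent M103205H795-SG1 carrying the SG1 human heavy chain constant region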
[1] = molecular target: T1, human FcγRIIb extracellular domain, C-terminal His-tag (human, UniProt P31994 43-217)
T1 construct: also called FcgRIIb (human); not shown: His-tag added to C-terminus
T1 sequence: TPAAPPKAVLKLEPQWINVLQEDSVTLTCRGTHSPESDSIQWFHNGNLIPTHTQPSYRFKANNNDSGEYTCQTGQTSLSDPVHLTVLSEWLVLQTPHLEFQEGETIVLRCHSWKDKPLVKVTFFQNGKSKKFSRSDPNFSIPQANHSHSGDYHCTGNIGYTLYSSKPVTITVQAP

[2] = molecular target: T2, human FcγRIIaH extracellular domain, C-terminal His-tag (human, UniProt P12318 34-217)
T2 construct: also called human FcγRIIa (type H); FcgRIIaH; not shown: His-tag added to C-terminus
T2 sequence: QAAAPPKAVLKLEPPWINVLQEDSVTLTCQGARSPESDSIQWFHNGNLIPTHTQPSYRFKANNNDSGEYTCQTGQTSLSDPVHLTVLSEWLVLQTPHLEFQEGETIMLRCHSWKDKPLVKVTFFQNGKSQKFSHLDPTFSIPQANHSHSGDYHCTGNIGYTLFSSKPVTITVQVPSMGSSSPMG

[3] = molecular target: T3, human FcγRIIIaV extracellular domain, C-terminal His-tag (human, UniProt P08637 17-208)
T3 construct: also called FcgRIIIaV; not shown: His-tag added to C-terminus

[4] = molecular target: T4, cynomolgus monkey FcγRIIb extracellular domain, C-terminal His-tag (cynomolgus monkey)
T4 construct: also called cyno FcγRIIb; cynoFcγRIIb; not shown: His-tag added to C-terminus
T4 chain: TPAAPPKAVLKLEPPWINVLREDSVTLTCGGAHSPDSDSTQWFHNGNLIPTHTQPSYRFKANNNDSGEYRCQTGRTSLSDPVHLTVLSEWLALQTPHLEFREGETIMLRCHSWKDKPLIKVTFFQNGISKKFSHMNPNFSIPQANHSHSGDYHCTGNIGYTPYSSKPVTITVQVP

[5] = molecular target: T5, human FcγRIIaR extracellular domain, C-terminal His-tag (human, UniProt P12318 34-217)
T5 construct: also called human FcγRIIa (type R); FcgRIIaR; not shown: His-tag added to C-terminus
T5 chain: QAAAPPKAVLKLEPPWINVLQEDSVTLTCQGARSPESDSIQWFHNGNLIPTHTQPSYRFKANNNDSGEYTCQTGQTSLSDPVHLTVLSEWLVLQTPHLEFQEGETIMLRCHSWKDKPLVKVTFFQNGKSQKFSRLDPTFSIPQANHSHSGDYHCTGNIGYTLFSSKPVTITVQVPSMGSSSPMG

[6] = molecular target: T6, cynomolgus monkey FcγRIIa3 extracellular domain, C-terminal His-tag (cynomolgus monkey)
T6 construct: also called cyno FcγRIIa3; cynoFcgRIIa3; not shown: His-tag added to C-terminus
T6 chain: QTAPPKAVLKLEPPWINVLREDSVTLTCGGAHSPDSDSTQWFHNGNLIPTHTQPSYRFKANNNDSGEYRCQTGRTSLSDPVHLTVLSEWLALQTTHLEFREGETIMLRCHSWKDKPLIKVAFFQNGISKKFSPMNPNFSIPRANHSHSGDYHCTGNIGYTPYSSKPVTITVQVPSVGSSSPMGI

[7] = molecular target: T7, cynomolgus monkey FcγRIIa2 extracellular domain, C-terminal His-tag (cynomolgus monkey)
T7 construct: also called cyno FcγRIIa2; cynoFcgRIIa2; not shown: His-tag added to C-terminus
T7 chain: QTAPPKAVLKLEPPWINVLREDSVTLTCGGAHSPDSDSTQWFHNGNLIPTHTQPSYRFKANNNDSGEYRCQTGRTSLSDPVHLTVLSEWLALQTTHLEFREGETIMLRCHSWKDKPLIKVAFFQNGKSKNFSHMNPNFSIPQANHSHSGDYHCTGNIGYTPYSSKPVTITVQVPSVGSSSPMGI

[8] = molecular target: T8, cynomolgus monkey FcγRIIa1 extracellular domain, C-terminal His-tag (cynomolgus monkey)
T8 construct: also called cyno FcγRIIa1; cynoFcgRIIa1; not shown: His-tag added to C-terminus
T8 chain: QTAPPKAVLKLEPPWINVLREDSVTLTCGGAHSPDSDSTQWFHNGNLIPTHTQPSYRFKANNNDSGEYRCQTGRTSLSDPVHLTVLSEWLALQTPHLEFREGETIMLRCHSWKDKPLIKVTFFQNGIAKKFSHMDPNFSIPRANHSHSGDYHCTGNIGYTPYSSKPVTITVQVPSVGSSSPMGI

T3 sequence (P08637 17-208 F176V): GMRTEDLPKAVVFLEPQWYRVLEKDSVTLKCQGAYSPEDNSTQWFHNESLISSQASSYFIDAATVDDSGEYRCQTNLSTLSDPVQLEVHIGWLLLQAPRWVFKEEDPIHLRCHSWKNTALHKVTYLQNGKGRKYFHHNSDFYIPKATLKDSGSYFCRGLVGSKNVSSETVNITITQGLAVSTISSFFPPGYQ

B1: M103205H795-MY309/M103202L889-SK1 (antibody, human IgG1, kappa)
heavy: QVTLKESGPVLVKPTETLTLTCTVSGIDLSHDDISWVRQAPGKGLEWVGIISYAGSTYYASWAKGRLTISKDTSKNQVVLTMTNMDPVDTATYYCARGVPAYSHGGDLWGQGTLVTVSSASTKGPSVFPLAPSSKSTSGGTAALGCLVKDYFPEPVTVSWNSGALTSGVHTFPAVLQSSGLYSLSSVVTVPSSSLGTQTYICNVNHKPSNTKVDKKVEPKSCDKTHTCPPCPAPELLTGPSVFLFPPKPKDTLMISRTPEVTCVVVDVSEEDPEVKFNWYVDGVEVHNAKTKPREEQYNSTYRVVSVLTVLHQDWLNGKEYKCKVSNKALPKPIEKTISKAKGQPREPQVYTLPPSREEMTKNQVSLTCLVKGFYPSDIAVEWESNGQPENNYKTTPMVLDSDGSFFLYSKLTVDKSRWQQGNVFSCSVMHEALHNHYTQKSLSLSP
light: DIVMTQSPATLSLSPGERATLSCTSSQSVYHANWLSWFQQKPGQPPKLLIYWASTLAYGVPSRFSGSGSGTDFTLTISSLQPEDAATYYCAGGYGGGRYAFGQGTKVEIKRTVAAPSVFIFPPSDEQLKSGTASVVCLLNNFYPREAKVQWKVDNALQSGNSQESVTEQDSKDSTYSLSSTLTLSKADYEKHKVYACEVTHQGLSSPVTKSFNRGEC
KD fold (SG1 = 1) [1]: 2.9 fold | KD fold (SG1 = 1) [2]: 4.9 fold | KD fold (SG1 = 1) [3]: 0.19 fold | KD fold (SG1 = 1) [4]: 2.9 fold | KD fold (SG1 = 1) [5]: 4.3 fold | KD fold (SG1 = 1) [6]: 2.4 fold | KD fold (SG1 = 1) [7]: 2 fold | KD fold (SG1 = 1) [8]: 1.3 fold

B2: M103205H795-MY312/M103202L889-SK1 (antibody, human IgG1, kappa)
heavy: QVTLKESGPVLVKPTETLTLTCTVSGIDLSHDDISWVRQAPGKGLEWVGIISYAGSTYYASWAKGRLTISKDTSKNQVVLTMTNMDPVDTATYYCARGVPAYSHGGDLWGQGTLVTVSSASTKGPSVFPLAPSSKSTSGGTAALGCLVKDYFPEPVTVSWNSGALTSGVHTFPAVLQSSGLYSLSSVVTVPSSSLGTQTYICNVNHKPSNTKVDKKVEPKSCDKTHTCPPCPAPELLTGPSVFLFPPKPKDTLMISRTPEVTCVVVDVSEEDPEVKFNWYVDGVEVHNAKTKPREEQYNSTYRVVSVLTVLHQDWLNGKEYKCKVSNTALPKPIEKTISKAKGQPREPQVYTLPPSREEMTKNQVSLTCLVKGFYPSDIAVEWESNGQPENNYKTTPMVLDSDGSFFLYSKLTVDKSRWQQGNVFSCSVMHEALHNHYTQKSLSLSP
light: DIVMTQSPATLSLSPGERATLSCTSSQSVYHANWLSWFQQKPGQPPKLLIYWASTLAYGVPSRFSGSGSGTDFTLTISSLQPEDAATYYCAGGYGGGRYAFGQGTKVEIKRTVAAPSVFIFPPSDEQLKSGTASVVCLLNNFYPREAKVQWKVDNALQSGNSQESVTEQDSKDSTYSLSSTLTLSKADYEKHKVYACEVTHQGLSSPVTKSFNRGEC
KD fold (SG1 = 1) [1]: 4.2 fold | KD fold (SG1 = 1) [2]: 6.3 fold | KD fold (SG1 = 1) [3]: 0.29 fold | KD fold (SG1 = 1) [4]: 4.5 fold | KD fold (SG1 = 1) [5]: 6.5 fold | KD fold (SG1 = 1) [6]: 4.6 fold | KD fold (SG1 = 1) [7]: 3.4 fold | KD fold (SG1 = 1) [8]: 2.3 fold

B3: M103205H795-MY310/M103202L889-SK1 (antibody, human IgG1, kappa)
heavy: QVTLKESGPVLVKPTETLTLTCTVSGIDLSHDDISWVRQAPGKGLEWVGIISYAGSTYYASWAKGRLTISKDTSKNQVVLTMTNMDPVDTATYYCARGVPAYSHGGDLWGQGTLVTVSSASTKGPSVFPLAPSSKSTSGGTAALGCLVKDYFPEPVTVSWNSGALTSGVHTFPAVLQSSGLYSLSSVVTVPSSSLGTQTYICNVNHKPSNTKVDKKVEPKSCDKTHTCPPCPAPELLTGPSVFLFPPKPKDTLMISRTPEVTCVVVDVSEEDPEVKFNWYVDGVEVHNAKTKPREEQYNSTYRVVSVLTVLHQDWLNGKEYKCKVSNTALPKPIEKTISKAKGQPREPQVYTLPPSREEMTKNQVSLTCLVKGFYPSDIAVEWESNGQPENNYKTTPPVLDSDGSFFLYSKLTVDKSRWQQGNVFSCSVMHEALHNHYTQKSLSLSP
light: DIVMTQSPATLSLSPGERATLSCTSSQSVYHANWLSWFQQKPGQPPKLLIYWASTLAYGVPSRFSGSGSGTDFTLTISSLQPEDAATYYCAGGYGGGRYAFGQGTKVEIKRTVAAPSVFIFPPSDEQLKSGTASVVCLLNNFYPREAKVQWKVDNALQSGNSQESVTEQDSKDSTYSLSSTLTLSKADYEKHKVYACEVTHQGLSSPVTKSFNRGEC
KD fold (SG1 = 1) [1]: 1.6 fold | KD fold (SG1 = 1) [2]: 1.7 fold | KD fold (SG1 = 1) [3]: 0.12 fold | KD fold (SG1 = 1) [4]: 1.9 fold | KD fold (SG1 = 1) [5]: 2 fold | KD fold (SG1 = 1) [6]: 2.4 fold | KD fold (SG1 = 1) [7]: 1.8 fold | KD fold (SG1 = 1) [8]: 1.1 fold

B4: M103205H795-MY311/M103202L889-SK1 (antibody, human IgG1, kappa)
heavy: QVTLKESGPVLVKPTETLTLTCTVSGIDLSHDDISWVRQAPGKGLEWVGIISYAGSTYYASWAKGRLTISKDTSKNQVVLTMTNMDPVDTATYYCARGVPAYSHGGDLWGQGTLVTVSSASTKGPSVFPLAPSSKSTSGGTAALGCLVKDYFPEPVTVSWNSGALTSGVHTFPAVLQSSGLYSLSSVVTVPSSSLGTQTYICNVNHKPSNTKVDKKVEPKSCDKTHTCPPCPAPELLTGPSVFLFPPKPKDTLMISRTPEVTCVVVDVSEEDPEVKFNWYVDGVEVHNAKTKPREELYNSTYRVVSVLTVLHQDWLNGKEYKCKVSNKALPKPIEKTISKAKGQPREPQVYTLPPSREEMTKNQVSLTCLVKGFYPSDIAVEWESNGQPENNYKTTPPVLDSDGSFFLYSKLTVDKSRWQQGNVFSCSVMHEALHNHYTQKSLSLSP
light: DIVMTQSPATLSLSPGERATLSCTSSQSVYHANWLSWFQQKPGQPPKLLIYWASTLAYGVPSRFSGSGSGTDFTLTISSLQPEDAATYYCAGGYGGGRYAFGQGTKVEIKRTVAAPSVFIFPPSDEQLKSGTASVVCLLNNFYPREAKVQWKVDNALQSGNSQESVTEQDSKDSTYSLSSTLTLSKADYEKHKVYACEVTHQGLSSPVTKSFNRGEC
KD fold (SG1 = 1) [1]: 2.2 fold | KD fold (SG1 = 1) [2]: 3.5 fold | KD fold (SG1 = 1) [3]: 0.11 fold | KD fold (SG1 = 1) [4]: 2.3 fold | KD fold (SG1 = 1) [5]: 2.4 fold | KD fold (SG1 = 1) [6]: 2 fold | KD fold (SG1 = 1) [7]: 1.5 fold | KD fold (SG1 = 1) [8]: 1.4 fold
